“And” between values parts separate entries of the source, which are not always exact repeats. Equal values may be shown once. Read-outs that look alike come from different tables or passages of the source.
Tests used:
Assay in all cases: cell-based or functional assay
human IL-1α [1] = target: T1, human IL-1α (human, UniProt P01583 113-271)
T1 sequence (looked up): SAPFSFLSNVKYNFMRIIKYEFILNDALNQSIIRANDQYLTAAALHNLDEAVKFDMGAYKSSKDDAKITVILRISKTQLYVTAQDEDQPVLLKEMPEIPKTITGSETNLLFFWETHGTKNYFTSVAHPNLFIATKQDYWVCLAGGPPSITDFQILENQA

human IL-1β [2] = target: T2, human IL-1β (human, UniProt P01584 117-269)
human IL-1β [3] = target: T2, human IL-1β; remark: listed apart in the source
human IL-1α [4] = target: T1, human IL-1α; remark: listed apart in the source
human IL-1β [5] = target: T2, human IL-1β; remark: listed apart in the source
human IL-1α [6] = target: T1, human IL-1α; remark: listed apart in the source
human IL-1α [7] = target: T1, human IL-1α; remark: listed apart in the source

| Binder | IL-1β IC50 (human IL-1β [2]) | MRC-5 IL-1β neutralization potency (human IL-1β [3]) [nM] | MRC5 ND50 (human IL-1α [6]) [nM] | further results |
| --- | --- | --- | --- | --- |
| ABT2-108/ABT1-122-511 hu IgG1/K wt (bispecific antibody, V domains shown) VH: EVQLLESGGGLVQPGGSLRLSCAASGFTFAEYTMMWVRQAPGKGLEWVSRIGQDGKNTYYADSVKGRFTISRDNSKNTLYLQMNSLRAEDTAVYYCAKYTGRVGVHHLFDYWGQGTLVTSS VL: DIQMTQSPSSLSASVGDRVTITCRASQPIWTELNWYQQKPGKAPKLLIYGSSSLQRGVPSRFSGSGSGTDFTLTISSLQPEDFATYYCKQFAYFPATFGQGTKVEIKR | 8 nM | ~8 | – | IL-1α IC50 (human IL-1α [1]): 40 nM; MRC5 IL-1α (human IL-1α [4]): 80 nM; MRC5 IL-1β (human IL-1β [5]): 8 nM |
| ABT2-108-620x/ABT1-122-511 huIgG1/K wt (bispecific antibody, V domains shown) VH: EVQLLESGGGLVQPGGSLRLSCAASGFTFAEESWMWVRQAPGKGLEWVSRIGQDGKNTYYREDVKGRFTISRDNSKNTLYLQMNSLRAEDTAVYYCAKYTGRIMGHHLFDYWGQGTLVTVSS VL: DIQMTQSPSSLSASVGDRVTITCRASQPIWTELNWYQQKPGKAPKLLIYGSSSLQRGVPSRFSGSGSGTDFTLTISSLQPEDFATYYCKQFAYFPATFGQGTKVEIKR | 0.01 nM and 0.02 nM and 0.03 nM | ~0.03 | – | – |
| ABT2-108-605/ABT1-122 hu IgG1/K wt (bispecific antibody, V domains shown) VH: EVQLLESGGGLVQPGGSLRLSCAASGFTFAEYTMMWVRQAPGKGLEWVSRIGQDGKNTYYREDVKGRFTISRDNSKNTLYLQMNSLRAEDTAVYYCAKYTGRVGVHHLFDYWGQGTLVTVSS VL: DIQMTQSPSSLSASVGDRVTITCRASQPIWTELNWYQQKPGKAPKLLIYGSSSLQSGVPRFSGSGSGTDFTLTISSLQPEDFATYYCQQFAYFPATFGQGTKVEIKR | – | ~0.35 | – | – |
| ABT1-141-47 (other) VL: DIQMTQSPSSLSASVGDRVTITCRANQWIQKQLAWYQQKPGKAPKLLIYSSSHLQSGVPSRFSGSGSGTDFTLTISSLQPQDFATYYCQQHLRVPMTFGQGTKVEIKR | – | – | 1 | – |
| ABT1-6 (other) VH: EVQLLESGGGLVQPGGSLRLSCAASGFTFGAYDMQWVRQAPGKGLEWVSSINKSGALTSYADSVKGRFTISRDNSKNTLYLQMNSLRAEDTAVYYCAKGWASFDYWGQGTLVTVSS | – | – | – | MRC5 ND50 (human IL-1α [7]): 15 µM |

Further lines, with some results ahead:

| IL-1β IC50 (human IL-1β [2]) | MRC-5 IL-1β neutralization potency (human IL-1β [3]) [nM] | MRC5 ND50 (human IL-1α [6]) [nM] | Binder | further results |
| --- | --- | --- | --- | --- |
| 15 nM and 20 nM and 40 nM | ~15 | – | ABT2-108/ABT1-122 hu IgG1/K wt (bispecific antibody, V domains shown) VH: EVQLLESGGGLVQPGGSLRLSCAASGFTFAEYTMMWVRQAPGKGLEWVSRIGQDGKNTYYADSVKGRFTISRDNSKNTLYLQMNSLRAEDTAVYYCAKYTGRVGVHHLFDYWGQGTLVTSS VL: DIQMTQSPSSLSASVGDRVTITCRASQPIWTELNWYQQKPGKAPKLLIYGSSSLQSGVPRFSGSGSGTDFTLTISSLQPEDFATYYCQQFAYFPATFGQGTKVEIKR | – |
| 0.05 nM | ~0.05 | – | ABT2-108-620x/ABT1-122 huIgG1/K wt (bispecific antibody, V domains shown) VH: EVQLLESGGGLVQPGGSLRLSCAASGFTFAEESWMWVRQAPGKGLEWVSRIGQDGKNTYYREDVKGRFTISRDNSKNTLYLQMNSLRAEDTAVYYCAKYTGRIMGHHLFDYWGQGTLVTVSS VL: DIQMTQSPSSLSASVGDRVTITCRASQPIWTELNWYQQKPGKAPKLLIYGSSSLQSGVPRFSGSGSGTDFTLTISSLQPEDFATYYCQQFAYFPATFGQGTKVEIKR | IL-1α IC50 (human IL-1α [1]): 150 nM |
| – | – | 5 | ABT1-141-25 (other) VL: DIQMTQSPSSLSASVGDRVTITCRASQWIQKQLAWYQQKPGKAPKLLIYSSSYLQSGVPSRFSGSGSGTDFTLTISSLQPEDFATYYCQQHLRVPMTFGQGTKVEIKR | – |
| – | – | 1 | ABT1-141-76 (other) VL: DIQMTQSPSSLSASVGDRVTITCRANQWIQKQLAWYQQKPGKAPKLLIYSSSHLQSGVPSRFSGSGSGTDFTLTISSLQPEDFATYYCQQHLRVPMTFGQGTKVEIKR | – |

Source: patent US20090291081A1 (AbbVie / Abbott, published 2009)
